Assay results as given in the nanobody polyreactivity screen of Harvey et al. (2022).

Experiment: yeast display, Sf9 membrane polyspecificity reagent, FACS + sequencing; frameworks hold sequencing errors
Method in brief: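 Galactose induction of a Saccharomyces cerevisiae BJ5465 synthetic nanobody display library ran 36–48 hours. The cells were then stained for 1 hour at 4 °C with 10% biotinylated, detergent-solubilized Sf9 membrane reagent, pulled down on streptavidin microbeads and FACS-sorted into low and high (top ~1%) gates on expression and reagent-binding fluorescence. Labels for polyreactivity follow the gate of origin.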

| Sequence | polyreactivity (PSR sort gate) |
| --- | --- |
| QVQLVESGGGLVQAGGSLRLSCAASGFTFDSYAMGWYRQAPGKERELVAAITSDGSTYYADSVKGRFTISRDNAKNTVYLQMNSLKPEDTAVYYCAADGRYFRAVFRLYDYWGQGTQVTVSS | low polyreactivity |
| QVQLVESGGGLVQAGGSLRLRCAASGSIFSNNAMGWYRPAPGKERELVAAITRSGGNTYYADSVKGRFTISRDNAKNTVYLQMNSLKPEDTAVYYCNAVHLRKMYYWGQGTQVTVSS | high polyreactivity |
| QVQLVESGGGLVQAGGSLRLSCAASVYGMGWYRQAPGKERELVAAISNGGTTYYADSVKGRFTISRDNAKNTVYLQMNSLKPEDTAVYYCAARSWPGGFIYYYWGQGTQVTVSS | low polyreactivity |
| QVQLVESGGGLVQAGGSLRLSCAASGFTFGGYAMGWYRQAPGKERELVAAIRASGGSTYYADSVKGRFTISRDNAKNTVYLQMNSLKPEDTAVYYCNADIWYKTYDYWGQGTQVTVSS | low polyreactivity |
| QVQLVESGGGLVQAGGSLRLSCAASGYTFVKYAMGWYRQAPGKERELVASISWSGGRTYYADSVKGRFTISRDNAKNTVYLQMNSLKPEDTAVYYCATRPTWYSYDYWGHGTQVTVSS | high polyreactivity |
| QVQLVESGGGLVQAGGSLRLSCAASGSIFAVYAMGWYRQAPGKERELVAVITRSGGSTYYADSVKGRFTISRDNAKNTFYLQMNSLKPEDTAVYYCAARTGYGYTRYEYWGQGTQVTVSS | high polyreactivity |
| QVQLVQSGGGLLQAGGSLRLSSAASGYTFGYYARGCYREAPGQERELVAAITSGGTTNYADTVKGRFTISRDNAKNTVYLQINSLKPEDTAVSYCNAVCTFVRYWTDGRDGVTYDYWGQGTQVTVSS | low polyreactivity |
| QVQLVESGGGLVQAGGSLRLSCAASGRIFGRYAMGWYRQAPGKERELVADITYRTGRTYYADSVKGRFTISRDNAKNTVYLQMNSMKPEDTAVYYCAAESTSDPIDFEYWGQGTQVTVSS | low polyreactivity |
| EEELVESGGGLVQAGGSLLLSCAAYGRILPRNDMGWYRQAPGKERELVAVISSGGSTYYPDSVKGRFTISRDNAKNTVYLQINSVKPEDTAVYYCLGGYYYLQYDYWGQGTQVTVSS | low polyreactivity |
| QVQIEESGGGLVQAGGSLRLSCAASGRIFARNALGWYRQSPGTEREFVAAITHSGGNTYYADSVKGRFTISRDNAKNSVYLQMNSLKPEDTAVYYCAKDYRSTKYDYWGQGTQVTVSS | low polyreactivity |
| QVQLVESGGGLVQAGGSLRLSCAASGGIFNYYAMGWYRQAPGKERELVAAISASGGSTYYADSVKGRFTISRDNAKNTVYLQMNSLKQEDTAVYYCAAKYPQKTPVNSYGNSFYYWGQGTQVTVSS | low polyreactivity |
| QVQLVESGGGLVQAGGSLRLSCAASGYTFAYYTMGWYRQAPGKERELVAAINRSGGSTNYADSVKGRFTISRDNAKNTVYLQMNSLKPEDTAVYYCAADYFFRRGPGAVFIGRYGYWGQGTQVTVSS | high polyreactivity |
| HVQLVESGGGLVQAGGSLRLSCAASGRTFIYNAMGWYRQAPGKEREFVAANTWSGATTRYADSVKGRFTISRDNAKNTVYLEMNSLKPEDTAVYYCAKGGFYYYGWRSSMDYWGQGTQVTVSS | high polyreactivity |
| QFQLVESVGGLVQAGGSLRLSCAATGRTSYVYLMVSYRAATGTEMELVAAITGSGGSTYYADSVKGRFTISRDNEKNNVYLQLNSLKPEDTAVYYCAKAYYSYEVYLGLSYVRRYVYWGQGTQVTVSS | low polyreactivity |
| QVQLVDSGAGLVQAGGSLRISCAATGSTFPRYGMGWYRQAPGKERQMVAAISSGGRTNYADSVKGRFTISRDNAKNTVYLQMNSLKPEDTAVYYCAARIPYYFSYYFYSGMDYWGQGTQVTVSS | high polyreactivity |
| QVQLVESGGGLVQAGGSLRLSCAASGSIFGSYDMGWYRQAPGKERELVAAISEGGGSTYYADTVKGRFTISRDNAMNTVYLQMYSLKPEDTAVYYCAADLILSYYPYYQDYYWGQGTQVTVSS | low polyreactivity |
| QVQLEESGGGLVQAVGSLRLSCAASGFIFKRNAMGWYRQAPGKERELVAAITSRGGHTYYADSVKGRFTISRDNAKNTVYLQMNSLKAEDTAVYYCAATYASHDDYWGQGTQVTVSS | high polyreactivity |
| QVLLVESGGGLVQAGGSLRLSCAASGFIFDVYAMGWYRQAPGKERELVAAISSSGGRKYYADSVKGRFTISRDNAKNTVYLQMNSLKPEDTAVYYCAAKTHSRTKVYTADYWGQGTQVTVSS | high polyreactivity |
| QVQLQESGGGLVQAGGSLRLSCAASGTITVLYKMGWFRQAPGKEREFFASINYGTSTYYADSVKGRFTVSRDSAKNTVYLQMISLKPEDTAVYYGAAAYRWQDVYRYWGQVTQVTVSS | low polyreactivity |
| QVHLQESGGGLVKAGGSLRLSCAASGTISPLPAMCWYRQAPGKEREFVAGIDTGAITNYADSVKGRFTISRDNAKNTVYLQMNSLKPEDTAVYYCAFFPAAYDYYERYYTYWGQGTQVTVSC | low polyreactivity |
| QVQLVDSGGGLVQAGGSLRLSCAASGSIFKYYAMGWSRQAPGKERELVAAISWSGDSTYYADSVKGRFTISRDNAKNTVYLQMNSLKPEDTAVYYCAAVYPYQVPDYDYWGQGSQVTVSS | low polyreactivity |
